Reference: PMC5659210, “Extending the biocatalytic scope of regiocomplementary flavin-dependent halogenase enzymes” (Chemical Science, 2015)

System: Nc1ccccc1C(=O)O
Experiment: Michaelis-Menten chlorination assay, HPLC, Fre-coupled
Type: biochemical, Pseudomonas fluorescens
Conditions: Fre in excess, 30 °C
Text: Michaelis-Menten chlorination assay, HPLC, Fre-coupled on PrnA

Row | Substance | Km [µM] | kcat [s⁻¹] | kcat/Km [M⁻¹ s⁻¹]
1 | PrnA (Pseudomonas fluorescens; E450K) | 384 ± 93 | 0.0155 ± 0.000833 | 40 ± 10
2 | PrnA (Pseudomonas fluorescens; E450K/F454K) | 205 ± 16 | 0.0303 ± 0.000667 | 148 ± 11.7
3 | PrnA (Pseudomonas fluorescens; E450K/F454R) | 378 ± 59 | 0.0212 ± 0.00117 | 56.7 ± 10
4 | PrnA (Pseudomonas fluorescens; F454K) | 3628 ± 1108 | 0.061 ± 0.0112 | 16.7 ± 6.67
